# According to patent US20260184748A1 (University of Pennsylvania, published 2026):
# Where no end group is shown, it is not given here.
# T1: CCKAR (UniProt P32238 1-428)
# T1 sequence (looked up): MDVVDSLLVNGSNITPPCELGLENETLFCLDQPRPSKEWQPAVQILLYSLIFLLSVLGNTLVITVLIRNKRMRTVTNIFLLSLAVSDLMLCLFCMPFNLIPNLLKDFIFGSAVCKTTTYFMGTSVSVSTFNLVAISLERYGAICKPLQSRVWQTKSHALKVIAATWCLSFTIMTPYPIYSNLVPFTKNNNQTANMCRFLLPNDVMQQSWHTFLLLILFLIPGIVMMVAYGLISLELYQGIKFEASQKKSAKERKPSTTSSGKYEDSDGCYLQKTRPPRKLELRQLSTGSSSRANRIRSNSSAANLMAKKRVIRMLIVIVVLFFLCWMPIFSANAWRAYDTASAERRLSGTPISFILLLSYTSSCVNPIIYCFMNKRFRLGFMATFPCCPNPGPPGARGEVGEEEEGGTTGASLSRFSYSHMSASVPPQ
# T2: CCR1 (UniProt P32246 1-355)
# T2 sequence (looked up): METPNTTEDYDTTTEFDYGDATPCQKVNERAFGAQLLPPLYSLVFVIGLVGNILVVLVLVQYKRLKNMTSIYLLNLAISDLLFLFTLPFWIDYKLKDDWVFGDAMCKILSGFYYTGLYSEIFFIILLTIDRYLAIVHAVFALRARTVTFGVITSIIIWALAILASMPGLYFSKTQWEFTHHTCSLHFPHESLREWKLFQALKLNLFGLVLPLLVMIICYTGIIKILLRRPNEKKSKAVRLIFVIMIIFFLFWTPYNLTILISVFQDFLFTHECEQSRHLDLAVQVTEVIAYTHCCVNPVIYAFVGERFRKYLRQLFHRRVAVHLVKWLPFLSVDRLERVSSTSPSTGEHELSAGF
# T3: CRHR1 (UniProt P34998 24-415, limits assumed)
# T3 sequence (looked up): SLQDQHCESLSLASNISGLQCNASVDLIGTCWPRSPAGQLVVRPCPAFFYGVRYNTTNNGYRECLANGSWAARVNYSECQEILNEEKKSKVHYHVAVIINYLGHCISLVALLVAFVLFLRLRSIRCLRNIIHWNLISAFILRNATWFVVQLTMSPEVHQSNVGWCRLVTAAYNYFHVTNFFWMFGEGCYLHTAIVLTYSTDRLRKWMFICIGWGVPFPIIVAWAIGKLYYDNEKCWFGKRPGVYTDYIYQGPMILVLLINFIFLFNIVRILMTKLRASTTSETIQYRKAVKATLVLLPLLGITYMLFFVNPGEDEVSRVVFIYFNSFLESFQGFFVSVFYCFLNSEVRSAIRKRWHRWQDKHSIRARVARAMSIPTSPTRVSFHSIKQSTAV
# T4: EDG7 (UniProt Q9UBY5 1-353)
# T4 sequence (looked up): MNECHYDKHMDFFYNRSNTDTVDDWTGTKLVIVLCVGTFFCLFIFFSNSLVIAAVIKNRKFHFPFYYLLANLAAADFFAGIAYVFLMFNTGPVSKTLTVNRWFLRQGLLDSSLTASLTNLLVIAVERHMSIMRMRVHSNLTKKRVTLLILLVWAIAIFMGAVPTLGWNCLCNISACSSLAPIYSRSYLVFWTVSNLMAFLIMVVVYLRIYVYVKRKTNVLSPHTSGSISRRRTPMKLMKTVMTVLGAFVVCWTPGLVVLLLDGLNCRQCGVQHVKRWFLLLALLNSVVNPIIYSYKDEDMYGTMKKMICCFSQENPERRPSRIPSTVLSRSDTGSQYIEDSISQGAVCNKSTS
# T5: FPR1 (UniProt P21462 1-350)
# T5 sequence (looked up): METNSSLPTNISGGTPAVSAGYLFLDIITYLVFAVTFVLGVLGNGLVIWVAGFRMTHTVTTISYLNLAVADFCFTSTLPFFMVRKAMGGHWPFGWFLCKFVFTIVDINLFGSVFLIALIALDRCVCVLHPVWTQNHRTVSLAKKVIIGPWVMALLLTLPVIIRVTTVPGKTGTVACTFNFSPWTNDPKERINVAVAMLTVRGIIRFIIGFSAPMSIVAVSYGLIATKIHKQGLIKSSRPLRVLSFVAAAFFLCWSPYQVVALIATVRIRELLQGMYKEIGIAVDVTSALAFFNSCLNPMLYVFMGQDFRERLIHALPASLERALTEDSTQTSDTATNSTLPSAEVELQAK
# Assays:
# Experiment in all cases: cell-based or functional assay
# HRH4 = HRH4 (UniProt Q9H3N8 1-390)
# HRH4, sequence (Q9H3N8 whole entry): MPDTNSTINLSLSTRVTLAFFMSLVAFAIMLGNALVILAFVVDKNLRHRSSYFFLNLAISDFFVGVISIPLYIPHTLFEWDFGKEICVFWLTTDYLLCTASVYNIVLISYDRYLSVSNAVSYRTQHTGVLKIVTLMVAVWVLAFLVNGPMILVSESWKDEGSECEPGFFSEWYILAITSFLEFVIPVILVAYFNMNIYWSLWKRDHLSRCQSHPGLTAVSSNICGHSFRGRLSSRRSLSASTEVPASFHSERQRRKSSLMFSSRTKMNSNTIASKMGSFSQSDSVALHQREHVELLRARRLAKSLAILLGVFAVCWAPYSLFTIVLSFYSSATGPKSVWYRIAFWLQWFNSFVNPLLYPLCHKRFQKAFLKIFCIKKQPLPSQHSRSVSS
# MC4R = MC4R (UniProt P32245 1-332)
# MC4R, sequence (P32245 whole entry): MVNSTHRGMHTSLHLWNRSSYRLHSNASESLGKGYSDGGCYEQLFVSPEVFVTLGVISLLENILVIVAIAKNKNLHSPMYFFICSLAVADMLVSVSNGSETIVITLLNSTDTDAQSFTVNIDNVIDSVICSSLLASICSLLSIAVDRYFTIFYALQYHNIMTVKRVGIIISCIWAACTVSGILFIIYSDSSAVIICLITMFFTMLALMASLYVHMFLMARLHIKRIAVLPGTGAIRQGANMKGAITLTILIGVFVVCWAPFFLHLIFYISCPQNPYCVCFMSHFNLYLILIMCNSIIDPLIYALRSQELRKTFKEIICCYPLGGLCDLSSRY
# AVPR1A = AVPR1A (UniProt P37288 1-418)
# AVPR1A, sequence (P37288 whole entry): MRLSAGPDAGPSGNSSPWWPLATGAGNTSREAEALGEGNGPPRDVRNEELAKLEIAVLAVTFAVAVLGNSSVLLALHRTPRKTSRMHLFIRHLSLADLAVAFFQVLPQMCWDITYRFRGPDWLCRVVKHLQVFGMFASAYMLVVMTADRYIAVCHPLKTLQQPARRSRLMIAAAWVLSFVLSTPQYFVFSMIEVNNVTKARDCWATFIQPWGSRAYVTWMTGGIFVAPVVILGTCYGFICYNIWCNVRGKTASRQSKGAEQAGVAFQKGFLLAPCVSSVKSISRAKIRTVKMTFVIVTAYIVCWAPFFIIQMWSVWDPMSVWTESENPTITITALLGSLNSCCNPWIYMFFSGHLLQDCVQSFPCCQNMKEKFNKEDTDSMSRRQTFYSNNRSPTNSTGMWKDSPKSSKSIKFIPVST
# P2RY6 = P2RY6 (UniProt Q15077 1-328)
# P2RY6, sequence (Q15077 whole entry): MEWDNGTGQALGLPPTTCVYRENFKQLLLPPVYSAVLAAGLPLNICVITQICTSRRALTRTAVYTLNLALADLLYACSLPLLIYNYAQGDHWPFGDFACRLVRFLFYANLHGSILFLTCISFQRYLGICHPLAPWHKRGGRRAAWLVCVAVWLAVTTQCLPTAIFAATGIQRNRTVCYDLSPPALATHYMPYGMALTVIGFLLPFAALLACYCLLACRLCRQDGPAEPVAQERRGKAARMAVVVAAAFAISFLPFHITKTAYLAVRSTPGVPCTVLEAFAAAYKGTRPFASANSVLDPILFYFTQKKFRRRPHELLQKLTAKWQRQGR
# PPYR1 = PPYR1 (UniProt P50391 1-375)
# PPYR1, sequence (P50391 whole entry): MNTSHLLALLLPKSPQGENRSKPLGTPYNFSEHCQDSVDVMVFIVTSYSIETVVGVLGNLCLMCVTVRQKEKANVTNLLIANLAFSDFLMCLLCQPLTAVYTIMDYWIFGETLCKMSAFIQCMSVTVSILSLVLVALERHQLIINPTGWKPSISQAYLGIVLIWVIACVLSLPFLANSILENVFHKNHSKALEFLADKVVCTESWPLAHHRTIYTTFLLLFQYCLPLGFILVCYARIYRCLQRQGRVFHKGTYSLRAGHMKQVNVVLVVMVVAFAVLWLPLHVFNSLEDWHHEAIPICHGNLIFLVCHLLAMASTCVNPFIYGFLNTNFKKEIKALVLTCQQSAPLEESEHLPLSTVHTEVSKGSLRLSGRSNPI
# CCKAR = target: T1, CCKAR
# CCR1 = target: T2, CCR1
# CCR5 = CCR5 (UniProt P51681 1-352)
# CCR5, sequence (P51681 whole entry): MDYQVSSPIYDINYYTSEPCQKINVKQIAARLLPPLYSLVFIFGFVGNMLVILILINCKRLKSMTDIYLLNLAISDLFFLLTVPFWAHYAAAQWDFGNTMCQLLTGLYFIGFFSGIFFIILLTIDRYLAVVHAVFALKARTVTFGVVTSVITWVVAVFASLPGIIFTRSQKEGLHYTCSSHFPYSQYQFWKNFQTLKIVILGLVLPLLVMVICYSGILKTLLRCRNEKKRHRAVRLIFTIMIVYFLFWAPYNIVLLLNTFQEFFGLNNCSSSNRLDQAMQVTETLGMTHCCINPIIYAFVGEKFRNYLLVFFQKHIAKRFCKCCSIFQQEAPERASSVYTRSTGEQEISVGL
# CRHR1 = target: T3, CRHR1
# CXCR7 = CXCR7 (UniProt P25106 1-362)
# CXCR7, sequence (P25106 whole entry): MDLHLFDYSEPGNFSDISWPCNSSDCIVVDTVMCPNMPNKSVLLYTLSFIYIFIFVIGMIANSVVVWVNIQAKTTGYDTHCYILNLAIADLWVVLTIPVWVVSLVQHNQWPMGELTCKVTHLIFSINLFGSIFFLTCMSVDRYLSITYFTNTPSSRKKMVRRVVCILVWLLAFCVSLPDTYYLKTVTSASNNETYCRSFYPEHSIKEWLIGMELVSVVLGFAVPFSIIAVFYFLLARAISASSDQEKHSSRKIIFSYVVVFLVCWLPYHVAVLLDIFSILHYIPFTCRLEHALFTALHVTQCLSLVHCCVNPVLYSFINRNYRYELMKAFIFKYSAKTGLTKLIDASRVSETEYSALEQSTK
# DRD2S = DRD2S (UniProt P14416-2 1-414)
# DRD2S, sequence (P14416 other isoform, or with tags, fused parts or gaps limits assumed): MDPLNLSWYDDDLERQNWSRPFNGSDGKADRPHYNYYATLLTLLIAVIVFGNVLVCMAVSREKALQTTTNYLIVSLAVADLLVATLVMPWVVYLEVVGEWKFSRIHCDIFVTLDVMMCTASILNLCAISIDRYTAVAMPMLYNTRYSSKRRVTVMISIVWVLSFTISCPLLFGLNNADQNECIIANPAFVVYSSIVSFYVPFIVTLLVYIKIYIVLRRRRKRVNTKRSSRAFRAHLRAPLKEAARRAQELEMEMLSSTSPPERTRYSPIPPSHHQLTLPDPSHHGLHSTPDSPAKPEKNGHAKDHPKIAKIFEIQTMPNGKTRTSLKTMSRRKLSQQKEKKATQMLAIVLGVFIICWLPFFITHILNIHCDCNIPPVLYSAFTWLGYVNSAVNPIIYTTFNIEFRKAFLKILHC
# DRD3 = DRD3 (UniProt P35462 1-400)
# DRD3, sequence (P35462 whole entry): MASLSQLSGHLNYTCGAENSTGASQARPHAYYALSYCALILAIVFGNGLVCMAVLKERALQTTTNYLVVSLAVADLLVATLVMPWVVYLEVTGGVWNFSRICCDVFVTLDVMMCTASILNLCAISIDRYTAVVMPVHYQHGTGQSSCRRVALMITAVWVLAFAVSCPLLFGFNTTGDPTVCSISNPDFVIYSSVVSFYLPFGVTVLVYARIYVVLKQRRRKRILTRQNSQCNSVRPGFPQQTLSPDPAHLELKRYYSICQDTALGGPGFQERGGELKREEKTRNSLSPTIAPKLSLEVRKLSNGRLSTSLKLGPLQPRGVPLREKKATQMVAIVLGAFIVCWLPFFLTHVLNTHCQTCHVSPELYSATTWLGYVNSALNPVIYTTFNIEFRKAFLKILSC
# EDG5 = EDG5 (UniProt O95136 1-353)
# EDG5, sequence (O95136 whole entry): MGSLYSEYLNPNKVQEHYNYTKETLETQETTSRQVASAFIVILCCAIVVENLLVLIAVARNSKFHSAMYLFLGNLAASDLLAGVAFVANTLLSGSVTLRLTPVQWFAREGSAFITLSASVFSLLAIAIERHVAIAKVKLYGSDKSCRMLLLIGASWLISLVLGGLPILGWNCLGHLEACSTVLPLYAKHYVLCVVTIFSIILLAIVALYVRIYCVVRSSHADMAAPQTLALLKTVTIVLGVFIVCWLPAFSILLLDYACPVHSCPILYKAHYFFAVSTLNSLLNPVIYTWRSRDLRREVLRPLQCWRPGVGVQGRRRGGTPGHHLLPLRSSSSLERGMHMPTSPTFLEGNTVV
# EDG7 = target: T4, EDG7
# FPR1 = target: T5, FPR1
# ADRB1 = ADRB1 (UniProt P08588 1-477)
# ADRB1, sequence (P08588 whole entry): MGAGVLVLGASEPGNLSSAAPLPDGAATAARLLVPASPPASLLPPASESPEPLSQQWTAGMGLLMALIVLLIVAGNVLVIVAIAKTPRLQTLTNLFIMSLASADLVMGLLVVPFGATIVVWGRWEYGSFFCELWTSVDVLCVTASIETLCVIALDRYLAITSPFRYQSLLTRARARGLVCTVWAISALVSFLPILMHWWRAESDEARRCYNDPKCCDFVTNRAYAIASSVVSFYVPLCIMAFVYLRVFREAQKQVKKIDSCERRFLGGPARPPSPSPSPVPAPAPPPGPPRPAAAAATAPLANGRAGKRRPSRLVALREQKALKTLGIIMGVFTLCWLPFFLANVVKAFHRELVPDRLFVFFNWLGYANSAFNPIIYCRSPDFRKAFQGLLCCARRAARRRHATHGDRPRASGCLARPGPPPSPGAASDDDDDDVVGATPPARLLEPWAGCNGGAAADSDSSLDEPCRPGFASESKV
binder,measurement,setting,value
"QATVGDVNTDRPGLLDLK (also: synthesised on Rink amide resin, C-terminal amide not given here outright) [octadecaneuropeptide (ODN)]","% Activity, arrestin, antagonist mode, 2.5 uM",HRH4,5.2%
same,"% Activity, arrestin, antagonist mode, 2.5 uM",MC4R,-4.6%
same,"% Activity, arrestin, antagonist mode, 2.5 uM",AVPR1A,-2.4%
same,"% Activity, arrestin, antagonist mode, 2.5 uM",P2RY6,-15.1%
same,"% Activity, arrestin, antagonist mode, 2.5 uM",PPYR1,-11.4%
same,"% Activity, arrestin, antagonist mode, 2.5 uM",CCKAR,-17.2%
same,"% Activity, arrestin, antagonist mode, 2.5 uM",CCR1,-5.4%
same,"% Activity, arrestin, antagonist mode, 2.5 uM",CCR5,-16.1%
same,"% Activity, arrestin, antagonist mode, 2.5 uM",CRHR1,5.4%
same,"% Activity, arrestin, antagonist mode, 2.5 uM",CXCR7,-9.6%
same,"% Activity, arrestin, antagonist mode, 2.5 uM",DRD2S,-13.4%
same,"% Activity, arrestin, antagonist mode, 2.5 uM",DRD3,-1%
same,"% Activity, arrestin, antagonist mode, 2.5 uM",EDG5,-11.2%
same,"% Activity, arrestin, antagonist mode, 2.5 uM",EDG7,5%
same,"% Activity, arrestin, antagonist mode, 2.5 uM",FPR1,-11.1%
same,"% Activity, arrestin, antagonist mode, 2.5 uM",ADRB1,12.6%
